This note sets out measurements from article PMC10208892 (The Journal of Biological Chemistry, 2023).

Where a chain is given by its changes, count along the chain named.

Test [1] deals with T1, VPS33B, untagged, expressed in yeast (human, UniProt Q9H267 1-617).
T1 sequence: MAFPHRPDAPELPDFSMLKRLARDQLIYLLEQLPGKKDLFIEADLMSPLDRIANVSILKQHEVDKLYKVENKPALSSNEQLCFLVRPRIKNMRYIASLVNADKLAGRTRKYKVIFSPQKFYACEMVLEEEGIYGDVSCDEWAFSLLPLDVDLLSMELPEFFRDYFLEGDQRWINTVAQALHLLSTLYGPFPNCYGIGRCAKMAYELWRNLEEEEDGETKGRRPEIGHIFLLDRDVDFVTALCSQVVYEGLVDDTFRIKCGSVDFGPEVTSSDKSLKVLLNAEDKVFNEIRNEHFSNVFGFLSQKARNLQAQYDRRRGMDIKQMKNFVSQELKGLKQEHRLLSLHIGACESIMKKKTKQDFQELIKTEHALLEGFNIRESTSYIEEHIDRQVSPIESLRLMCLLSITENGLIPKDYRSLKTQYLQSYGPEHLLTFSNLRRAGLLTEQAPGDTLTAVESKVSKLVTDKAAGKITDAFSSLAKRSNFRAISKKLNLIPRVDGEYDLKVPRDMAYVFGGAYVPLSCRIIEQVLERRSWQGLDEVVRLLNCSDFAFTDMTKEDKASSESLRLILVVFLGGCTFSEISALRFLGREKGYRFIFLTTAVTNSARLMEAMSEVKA
Description: co-IP.

Another test deals with T2, VPS33B H344D (human, UniProt Q9H267 1-617, H344D).
T2 sequence: T1 sequence with H344D
Description: co-IP.

The target of test [2] is T3, VPS33B with C-terminal biotinylation signal (human, UniProt Q9H267 1-617, biotin on lysine 41 of the biotinylation signal).
T3 sequence: T1 sequence
Description: co-IP.

In the next test the target is T4, VPS33B S243F (human, UniProt Q9H267 1-617, S243F).
T4 sequence: T1 sequence with S243F
Description: co-IP.

The target of test [3] is T1, VPS33B, untagged, expressed in yeast. Description: native gel or EMSA. For orientation: A gel shift assay detects complexes by their altered migration in electrophoresis.
The target in test [4] is T5, HA-VPS33B, expressed in yeast (human, UniProt Q9H267 1-617).
T5 sequence: T1 sequence
Description: co-IP.

B1: VPS16B(143–316)-3xFLAG (domain or fragment)
chain: RPKGEYRDYSNDWSPSDTVRRLRKGKVCSLERFRSLQDKLQLLEEAVSMHDGNVITAVLIFLKRTLSKEILFRELEVRQVALRHLIHFLKEIGDQKLLLDLFRFLDRTEELALSHYREHLNIQDPDKRKEFLKTCVGLPFSAEDSAHIQDHYTLLERQIIIEANDRHLESAGQT
Regarding B1, the binding result in test [1] was “binds”.

B2: VPS16B(143–493)-3xFLAG (domain or fragment)
chain: RPKGEYRDYSNDWSPSDTVRRLRKGKVCSLERFRSLQDKLQLLEEAVSMHDGNVITAVLIFLKRTLSKEILFRELEVRQVALRHLIHFLKEIGDQKLLLDLFRFLDRTEELALSHYREHLNIQDPDKRKEFLKTCVGLPFSAEDSAHIQDHYTLLERQIIIEANDRHLESAGQTEIFRKHPRKASILNMPLVTTLFYSCFYHYTEAEGTFSSPVNLKKTFKIPDKQYVLTALAARAKLRAWNDVDALFTTKNWLGYTKKRAPIGFHRVVEILHKNNAPVQILQEYVNLVEDVDTKLNLATKFKCHDVVIDTYRDLKDRQQLLAYRSKVDKGSAEEEKIDALLSSSQIRWKN
Consider B2, for which the binding result in test [1] was “binds”.

B3: VPS16B-3xFLAG, expressed in yeast (natural protein)
chain: MNRTKGDEEEYWNSSKFKAFTFDDEDDELSQLKESKRAVNSLRDFVDDDDDDDLERVSWSGEPVGSISWSIRETAGNSGSTHEGREQLKSRNSFSSYAQLPKPTSTYSLSSFFRGRTRPGSFQSLSDALSDTPAKSYAPELGRPKGEYRDYSNDWSPSDTVRRLRKGKVCSLERFRSLQDKLQLLEEAVSMHDGNVITAVLIFLKRTLSKEILFRELEVRQVALRHLIHFLKEIGDQKLLLDLFRFLDRTEELALSHYREHLNIQDPDKRKEFLKTCVGLPFSAEDSAHIQDHYTLLERQIIIEANDRHLESAGQTEIFRKHPRKASILNMPLVTTLFYSCFYHYTEAEGTFSSPVNLKKTFKIPDKQYVLTALAARAKLRAWNDVDALFTTKNWLGYTKKRAPIGFHRVVEILHKNNAPVQILQEYVNLVEDVDTKLNLATKFKCHDVVIDTYRDLKDRQQLLAYRSKVDKGSAEEEKIDALLSSSQIRWKN
With B3, the binding result (with VPS33B H344D; in test [2]; with VPS33B S243F; in test [3]) was “binds” in each case.

B4: HA-VPS16B-3xFLAG, expressed in yeast (natural protein)
chain: B3 chain
With B4, in test [4], the binding result is given as “binds”.
